“And” between values parts separate entries of the source, which are not always exact repeats. Equal values may be shown once. One block for each binder: values may come before it.
Key:
[1] = target: α4β1 integrin on cells (α4β1-positive Ramos cells; HuT-78 cells) (UniProt P13612 34-1032; P05556 21-798, limits assumed); experiment: cell-based or functional assay
[2] = target: T1, Cyno- α4β7 (Cyno); experiment: SPR with multiple cycle kinetics
T1 construct: SPR antigen; construct not described; also called cynomolgus α4β7 integrin

[3] = target: T2, Dog- α4β7 (Dog, UniProt A0A8I3PRY8 36-976; A0A8I3P7W0 20-723); experiment: SPR with multiple cycle kinetics
T2 construct: SPR antigen; construct not described; also called dog α4β7 integrin; copies: 1 + 1

[4] = target: T3, Rabbit- α4β7 (Rabbit, UniProt G1TY34 34-977; G1SFE7 20-723); experiment: SPR with multiple cycle kinetics
T3 construct: SPR antigen; construct not described; also called rabbit α4β7 integrin; copies: 1 + 1

[5] = target: T4, rat α4β7 integrin on rat PBMCs (rat, UniProt D3ZMQ3 38-1036; G3V7M2 20-791); experiment: flow cytometry on cryopreserved rat PBMCs
T4 construct: whole, on cells; That the target on them is α4β7 is inferred from the purpose of the study; also called cells isolated from rats

[6] = target: T5, mouse α4β7 integrin on mouse PBMCs (mouse, UniProt Q00651 41-1039; P26011 20-806); experiment: flow cytometry on cryopreserved mouse PBMCs
T5 construct: whole, on cells; That the target on them is α4β7 is inferred from the purpose of the study; also called cells isolated from mice

[7] = target: T6, monkey α4β7 integrin on monkey PBMCs (monkey); experiment: receptor occupancy: competition with fluorescently labeled antibody, flow cytometry; all cell types, monkey PBMCs; mean, n = 7
T6 construct: whole, on cells; Receptor occupancy on CD4+, CD20+ and CD45RO+ cells from monkey donors
Description: (§1) The IC₅₀ values for competitive inhibition were determined by titrating unlabeled Ab001 into samples equilibrated with EC₅₀ concentrations of fluorescently labeled Ab001. Ab001 and Comparator Antibody Receptor Occupancy (IC₅₀) on CD4+, CD20+, and CD45RO+Cells from Human and Monkey Donors are shown in Table 2B.

[8] = target: T6, monkey α4β7 integrin on monkey PBMCs; experiment: receptor occupancy: competition with fluorescently labeled antibody, flow cytometry; CD20+ B cells, monkey PBMCs; range, n = 3 donors
Description: as §1

[9] = target: T6, monkey α4β7 integrin on monkey PBMCs; experiment: receptor occupancy: competition with fluorescently labeled antibody, flow cytometry; CD4+ Th cells, monkey PBMCs; range, n = 3 donors
Description: as §1

[10] = target: T6, monkey α4β7 integrin on monkey PBMCs; experiment: receptor occupancy: competition with fluorescently labeled antibody, flow cytometry; CD45RO+ memory T cells, monkey PBMCs; n = 1 donor
Description: as §1

VCAM-1 Inhibition IC50 (adhesion of HuT-78 cells to coated recombinant VCAM-1) [1]: 0.23 nM
B1: Natalizumab (antibody, V domains shown)
VH: QVQLVQSGAEVKKPGASVKVSCKASGFNIKDTYIHWVRQAPGQRLEWMGRIDPANGYTKYDPKFQGRVTITADTSASTAYMELSSLRSEDTAVYYCAREGYYGNYGVYAMDYWGQGTLVTVSS
VL: DIQMTQSPSSLSASVGDRVTITCKTSQDINKYMAWYQQTPGKAPRLLIHYTSALQPGIPSRFSGSGSGRDYTFTISSLQPEDIATYYCLQYDNLWTFGQGTKVEIK

Kd [2]: 2.72 nM
Kd [3]: 4.81 nM
Kd [4]: 6.26 nM
binding result [5]: no binding
binding result [6]: no binding
IC50 [7]: 0.5 nM
IC50 [8]: 0.46 nM and 0.5 nM
IC50 [9]: 0.49 nM and 0.54 nM
IC50 [10]: 0.53 nM
B2: α4β7 binding antibody Ab001 (antibody, human IgG1, kappa)
heavy: QVQLVQSGAEVKKPGASVKVSCKGSGYTFTSYWMHWVRQAPGQRLEWIGEIDPSESNTNYNQKFKGRVTLTVDISASTAYMELSSLRSEDTAVYYCARGGYDGWDYAIDYWGQGTLVTVSSASTKGPSVFPLAPSSKSTSGGTAALGCLVKDYFPEPVTVSWNSGALTSGVHTFPAVLQSSGLYSLSSVVTVPSSSLGTQTYICNVNHKPSNTKVDKKVEPKSCDKTHTCPPCPAPELAGAPSVFLFPPKPKDTLYITREPEVTCVVVDVSHEDPEVKFNWYVDGVEVHNAKTKPREEQYNSTYRVVSVLTVLHQDWLNGKEYKCKVSNKALPAPIEKTISKAKGQPREPQVYTLPPSRDELTKNQVSLTCLVKGFYPSDIAVEWESNGQPENNYKTTPPVLDSDGSFFLYSKLTVDKSRWQQGNVFSCSVMHEALHNHYTQKSLSLSPG
light: DVVMTQSPLSLPVTPGEPASISCRSSQSLAKSYGNTYLSWYLQKPGQSPQLLIYGISNRFSGVPDRFSGSGSGTDFTLKISRVEAEDVGVYYCLQGTHQPYTFGQGTKVEIKRTVAAPSVFIFPPSDEQLKSGTASVVCLLNNFYPREAKVQWKVDNALQSGNSQESVTEQDSKDSTYSLSSTLTLSKADYEKHKVYACEVTHQGLSSPVTKSFNRGEC
notes: also called long acting α4β7 targeting molecule; Ab001-A647

Kd [2]: 1.2 nM
Kd [3]: 1.77 nM
Kd [4]: 5.34 nM
binding result [5]: no binding
binding result [6]: no binding
IC50 [7]: 0.56 nM
IC50 [8]: 0.42 nM and 0.66 nM
IC50 [9]: 0.48 nM and 0.6 nM
IC50 [10]: 0.58 nM
B3: comparator antibody (antibody, human IgG1, kappa)
heavy: not shown
light: B2 light

From patent US20260022176A1 (PARAGON THERAPEUTICS, published 2026)
